Data published in patent publication EP4793288A1 (Imbiologics Corp., dated 2025).
Changes are numbered by the printed parent chain. One block for each binder: values may come before it.

Assays:
[1] = biological target: B2M (UniProt P61769 21-119); assay: ELISA
[2] = biological target: T1, HLA-G expressed on the cell surface (human, UniProt P17693 25-338); assay: flow cytometry on JEG-3 and SCH cells naturally expressing HLA-G, anti-human IgG PE
T1 construct: whole, on cells; The cell line of each entry is named under assay or readout; also called HLA-G on JEG-3 cells; HLA-G on SCH cells

[3] = biological target: T1, HLA-G expressed on the cell surface; assay: cell-based or functional assay
[4] = biological target: T2, Recombinant HLA-G antigen (human, UniProt P17693 25-308, limits assumed); assay: BLI (Octet), antibody on anti-human IgG Fc capture biosensor, HLA-G antigen 100 to 1.56 nM
T2 construct: also called recombinant HLA-G protein

- binding result [1]: no binding
B1: T22A4 (antibody, human IgG1, kappa, V domains shown)
VH: EVQLVESGGNWVQPGGSLRLSCAASGFSFRSYAMSWVRQAPGKGLEWVSSISGSGNSELYAGSVKGRFTISRDNSKNTLSLQLHSLRAEDTAMYYCAKFSAAVGFLPDYFDSWGQGTLVTVSS
VL: ELTLTQSPSSLSASVGDRVTITCQASHDISKYLNWYQQKSGKAPKLLIYDASNLETGVPSRFSGSGSGTDFTLTISSLQPEDFATYYCQQSYRTPLTFGGGTKLEIKR

- binding result [1]: no binding
B2: T23D5 (antibody, human IgG1, kappa, V domains shown)
VH: QVQLQESGPGLVKPSETLSLTCTVSGGSIDRSSHYWGWIRQPPGKGLEWLGSIYYSGITYYNPSLKSRVTISVDTSRNQFSLTLSSVTAADTAVYYCARHGSYDSWAGRYKWDRFDPWGQGTPVTVSS
VL: B1 VL with T3Q, L4M, R93S, L104V

- binding result [1]: no binding
- Kd [4]: 0.689 nM
- koff [4]: 0.000138 s⁻¹
B12: 2F1_LS#17 (antibody, human IgG1, kappa, V domains shown)
VH: EVQLVESGGGLVQPGGSLRLSCAASGFTFSSYAMSWVRQAPGKGLEWVSRISGSGGYIYYADSVKGRFTISRDNSKNTLYLQMNSLRAEDTAVYYCAKEGTSSYRGWMDVWGQGTLVTVSS
VL: DIQMTQSPSSLSASVGDRVTITCRASQSISNYLNWYQQKPGKAPKLLIYAASRLQSDVPSRFSGSGSGTDFTLTISSLQPEDFATYYCQQSYSTPWTFGQGTKVEIKR

- binding result [1]: no binding
- Kd [4]: 0.523 nM
- koff [4]: 0.00013 s⁻¹
B14: 2F1 (antibody, human IgG1, kappa, V domains shown)
VH: B12 VH
VL: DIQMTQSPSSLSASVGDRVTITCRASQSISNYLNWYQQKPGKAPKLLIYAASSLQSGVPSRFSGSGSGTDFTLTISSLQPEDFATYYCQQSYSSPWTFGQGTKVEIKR
notes: produced in Expi293F cells

- binding result [1]: no binding
- Kd [4]: 0.553 nM
- koff [4]: 0.00012 s⁻¹
B16: 2F1_LS#24 (antibody, human IgG1, kappa, V domains shown)
VH: B12 VH
VL: B12 VL with Y32W, D57G, S93T, T94S

- binding result [1]: no binding
- Kd [4]: 0.567 nM
- koff [4]: 0.000106 s⁻¹
B19: 2F1_LS#39 (antibody, human IgG1, kappa, V domains shown)
VH: B12 VH
VL: B12 VL with N31R, A51T, R53N, Q55H, D57G, S93T, T94S

- EC50 (nM), ADCC reporter assay on SKOV-3/HLA-G cells, afucosylated antibody [3]: 0.13 nM
B20: Afucosylated positive control antibody (antibody, human IgG1, kappa, V domains shown)
VH: QLQLQESGPGLVKPSETLSLTCTVSGGSISSSSTYWSWIRQPPGKGLEWIGGIAYSGSTYYNPSLKSRVTISVDTSKNQFSLKLSSVTAADTAVYYCARGVRRAVPEDYWGQGTLVTVSS
VL: EIVLTQSPGTLSLSPGERATLSCQASQAVSSNYLAWYQQKPGQAPRLLIYGASSRATGIPDRFSGSGSGTDFTLTISRLEPEDFAVYYCQQVVHSPYTFGGGTKVEIKR
modifications: afucosylated glycan

- EC50 (nM), ADCC reporter assay on SKOV-3/HLA-G cells [3]: 1.59 nM
- Kd [4]: 1.36 nM
- koff [4]: 0.000157 s⁻¹
B21: Positive control antibody (antibody, human IgG1, kappa, V domains shown)
VH: B20 VH
VL: B20 VL

Continued, binder first:

B3: 2F1CDRH3#10 (antibody, human IgG1, kappa, V domains shown)
VH: B12 VH with I58K
VL: IQMTQSPSSLSASVGDRVTITCRASQSISNYLNWYQQKPGKAPKLLIYATSTLQSGVPSRFSGSGSGTDFTLTISSLQPEDFATYYCQQSYTTPWTFGQGTKVEIKR
- fold HLA-G binding activity against the positive control antibody [2]: ≥ 3 fold
- binding result [1]: no binding
- EC50 (nM), ADCC reporter assay on SKOV-3/HLA-G cells [3]: 0.08 nM

B4: Afucosylated 2F1CDRH3#10 (antibody, human IgG1, kappa, V domains shown)
VH: B12 VH with I58K
VL: B3 VL
modifications: afucosylated glycan (antibody produced with 400 µM 2-deoxy-2-fluoro-L-fucose in the medium)
- EC50 (nM), ADCC reporter assay on SKOV-3/HLA-G cells, afucosylated antibody [3]: 0.01 nM

B5: Afucosylated 2F1CDRH3#26 (antibody, human IgG1, kappa, V domains shown)
VH: B12 VH with G56S, I58T, T101A
VL: B12 VL with A51T, D57G, Y92H
modifications: afucosylated glycan (antibody produced with 400 µM 2-deoxy-2-fluoro-L-fucose in the medium)
- EC50 (nM), ADCC reporter assay on SKOV-3/HLA-G cells, afucosylated antibody [3]: 0.02 nM

B6: Afucosylated 2F1CDRH3#16 (antibody, human IgG1, kappa, V domains shown)
VH: B12 VH with S31D, G53S, G56S, I58T, S103K
VL: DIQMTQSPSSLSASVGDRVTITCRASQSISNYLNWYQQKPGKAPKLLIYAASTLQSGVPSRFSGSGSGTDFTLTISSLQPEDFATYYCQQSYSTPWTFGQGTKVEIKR
modifications: afucosylated glycan (antibody produced with 400 µM 2-deoxy-2-fluoro-L-fucose in the medium)
- EC50 (nM), ADCC reporter assay on SKOV-3/HLA-G cells, afucosylated antibody [3]: 0.02 nM

B7: Afucosylated 2F1HS6LS#38 (antibody, V domains shown)
VH: B12 VH with S31D, G53Q, G56S, I58T
VL: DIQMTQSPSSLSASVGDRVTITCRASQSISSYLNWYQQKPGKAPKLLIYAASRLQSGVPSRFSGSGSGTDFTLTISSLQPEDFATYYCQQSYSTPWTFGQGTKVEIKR
modifications: afucosylated glycan (antibody produced with 400 µM 2-deoxy-2-fluoro-L-fucose in the medium)
- EC50 (nM), ADCC reporter assay on SKOV-3/HLA-G cells, afucosylated antibody [3]: 0.07 nM

B8: Afucosylated 2F1CDRH3#17 (antibody, human IgG1, kappa, V domains shown)
VH: B12 VH with S31D, S54T, G56S, I58K, S103T
VL: B12 VL with A51T, D57G, S93T
modifications: afucosylated glycan (antibody produced with 400 µM 2-deoxy-2-fluoro-L-fucose in the medium)
- EC50 (nM), ADCC reporter assay on SKOV-3/HLA-G cells, afucosylated antibody [3]: 0.01 nM

B9: Afucosylated 2F1HS6LS#46 (antibody, human IgG1, kappa, V domains shown)
VH: B12 VH with S31D, G53Q, G56S, I58T
VL: B12 VL with Y32W, A51T, D57G
modifications: afucosylated glycan (antibody produced with 400 µM 2-deoxy-2-fluoro-L-fucose in the medium)
- EC50 (nM), ADCC reporter assay on SKOV-3/HLA-G cells, afucosylated antibody [3]: 0.02 nM

B10: 2F1HS6LS#38 (antibody, V domains shown)
VH: B12 VH with S31D, G53Q, G56S, I58T
VL: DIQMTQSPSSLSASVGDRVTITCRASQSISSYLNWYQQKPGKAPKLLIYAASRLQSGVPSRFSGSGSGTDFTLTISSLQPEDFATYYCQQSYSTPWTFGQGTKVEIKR
- fold HLA-G binding activity against the positive control antibody [2]: ≥ 3 fold
- binding result [1]: no binding
- EC50 (nM), ADCC reporter assay on SKOV-3/HLA-G cells [3]: 0.93 nM

B11: 2F1_LS#26 (antibody, human IgG1, kappa, V domains shown)
VH: B12 VH
VL: B12 VL with A51T, D57G, T94F
- binding result [1]: no binding
- Kd [4]: 0.698 nM
- koff [4]: 2.82e-05 s⁻¹

B13: 2F1CDRH3#26 (antibody, human IgG1, kappa, V domains shown)
VH: B12 VH with G56S, I58T, T101A
VL: B12 VL with A51T, D57G, Y92H
- fold HLA-G binding activity against the positive control antibody [2]: ≥ 3 fold
- binding result [1]: no binding
- EC50 (nM), ADCC reporter assay on SKOV-3/HLA-G cells [3]: 0.1 nM

B15: 2F1HS6LS#46 (antibody, human IgG1, kappa, V domains shown)
VH: B12 VH with S31D, G53Q, G56S, I58T
VL: B12 VL with Y32W, A51T, D57G
- fold HLA-G binding activity against the positive control antibody [2]: ≥ 3 fold
- binding result [1]: no binding
- EC50 (nM), ADCC reporter assay on SKOV-3/HLA-G cells [3]: 0.15 nM

B17: 2F1CDRH3#17 (antibody, human IgG1, kappa, V domains shown)
VH: B12 VH with S31D, S54T, G56S, I58K, S103T
VL: B12 VL with A51T, D57G, S93T
- fold HLA-G binding activity against the positive control antibody [2]: ≥ 3 fold
- binding result [1]: no binding
- EC50 (nM), ADCC reporter assay on SKOV-3/HLA-G cells [3]: 0.07 nM

B18: 2F1CDRH3#16 (antibody, human IgG1, kappa, V domains shown)
VH: B12 VH with S31D, G53S, G56S, I58T, S103K
VL: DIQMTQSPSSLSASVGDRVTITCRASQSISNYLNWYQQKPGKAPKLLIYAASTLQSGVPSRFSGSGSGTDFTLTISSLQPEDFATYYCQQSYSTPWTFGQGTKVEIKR
- fold HLA-G binding activity against the positive control antibody [2]: ≥ 3 fold
- binding result [1]: no binding
- EC50 (nM), ADCC reporter assay on SKOV-3/HLA-G cells [3]: 0.17 nM
